{
  "source": "paper PMC3582033",
  "about": "(Cell, 2011)",
  "system": "HP1γ binding to H3 peptide containing K9me3 as the sole modification",
  "assay": "TRIM33 competition with HP1γ for H3 peptide, K9me3 only",
  "settings": "3-fold molar excess of TRIM33",
  "data": [
    {"molecule": "TRIM33: Flag-tagged TRIM33 protein (protein) MAENKGGGEAESGGGGSGSAPVTAGAAGPTAQEAEPPLAAVLVEEEEEEGGRAGAEGGAAGPDDGGVAAASSSSAPAASVPAASVGSAVPGGAASTPAPAAAPAPAPAPAPAPAPAPAPAPAPGSSSGPPLGPPASLLDTCAVCQQSLQSRREAEPKLLPCLHSFCLRCLPEPERQLSVPIPGGSNGDVQQVGVIRCPVCRQECRQIDLVDNYFVKDTSEAPSSSDEKSEQVCTSCEDNASAVGFCVECGEWLCKTCIEAHQRVKFTKDHLIRKKEDVSESVGTSGQRPVFCPVHKQEQLKLFCETCDRLTCRDCQLLEHKEHRYQFLEEAFQNQKGAIENLLAKLLEKKNYVHFAATQVQNRIKEVNETNKRVEQEIKVAIFTLINEINKKGKSLLQQLENVTKERQMKLLQQQNDITGLSRQVKHVMNFTNWAIASGSSTALLYSKRLITFQLRHILKARCDPVPAANGAIRFHCDPTFWAKNVVNLGNLVIESKPAPGYTPNVVVGQVPPGTNHISKTPGQINLAQLRLQHMQQQVYAQKHQQLQQMRLQQPPAPIPTTTATTQQHPRQAAPQMLQQQPPRLISVQTMQRGNMNCGAFQAHQMRLAQNAARIPGIPRHSAPQYSMMQPHLQRQHSNPGHAGPFPVVSAHNPINPTSPTTATMANANRGPTSPSVTAIELIPSVTNPENLPSLPDIPPIQLEDAGSSSLDNLLSRYISGSHLPPQPTSTMNPSPGPSALSPGSSGLSNSHTPVRPPSTSSTGSRGSCGSSGRTAEKSAHSFKSDQVKVKQEPGTEEEICSFSGAVKQEKTEDGRRSACMLSSPESSLTPPLSTNLHLESELDTLTGLENHVKTEPTDISESCKQSGLSNLVNGKSPIRNLMHRSARIGGDGNSKDDDPNEDWCAVCQNGGDLLCCEKCPKVFHLTCHVPTLLSFPSGDWICTFCRDIGKPEVEYDCDNMQHSKKGKTAQGLSPVDQRKCERLLLYLYCHELSIEFQEPVPVSIPNYYKIIKKPMDLSTVKKKLQKKHSQHYQIPDDFVADVRLIFKNCERFNEMMKVVQVYADTQEINLKGDSEVAKAGKAVALYFEDKLSEIYSDRTFTPLPEFEQDEDDGEVTEDSDEDFIQPRRKRLKSDERPVHIK", "values": [
      {"measurement": "competition with HP1γ", "result": "ineffective at competing with HP1γ"}
    ]}
  ]
}
